Reference: the nanobody polyreactivity screen of Harvey et al. (2022)

test: yeast display, Sf9 membrane polyspecificity reagent, FACS + sequencing; frameworks hold sequencing errors
How it was run: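 Galactose induction of a Saccharomyces cerevisiae BJ5465 synthetic nanobody display library ran 36–48 hours. The cells were then stained for 1 hour at 4 °C with 10% biotinylated, detergent-solubilized Sf9 membrane reagent, pulled down on streptavidin microbeads and FACS-sorted into low and high (top ~1%) gates on expression and reagent-binding fluorescence. Labels for polyreactivity follow the gate of origin.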

Row | Sequence | polyreactivity (PSR sort gate)
1 | QVQLEESGGGLDQAGGSLRLSCAASGSIFYYYAMGWYRQAPGKERELVAVIDFSGASTSYAVSVKGRFTISRDNAKITVYLQMNSLKPEDTAVYYCAADRRSKYDYWGQGTQVTVSS | low polyreactivity
2 | QVQLEESGGGLVQAGGRLRLSCAASGRTFSTYAMGWYRQATGKERELVAAITRRGGSTSYADSVKGRFTISRDNANNTVYLQMNSLNPEDTAVYYCARENPGDSYYDYWGQGTQVTVSS | low polyreactivity
3 | QVQLEESGGGLVQAGGRLRLSCAASGSTFVRSVMGSYRAAPGKERELVAAISEGGGSTYYADSVKGRFTISRDNAKNTVYLQMNSLKPEDTAVYYCAAEGYFRYWYGTIQYDYWGQGTQVTVSS | high polyreactivity
4 | QVQLEESGGGLVQAGGSHRLSCAASGFTFIDNAMGSYRQAPGKERELVAAISISGGRTYYADSVKGRFTISRDNAKNTVYLQMNSLKPEDTAVYYCAAGKHRRDDYWGQGTQVTVSS | high polyreactivity
5 | QVQLEESGGGLVQAGGSIRLSCAASGRTIVYNAMGWYRQAPGNERELVDAIDGGGDRTYYADSVKGRFTISRDNAKITVYLQMNRLKPEDTAVYYCARDPGDTYYYSYPEGDYWGQGTQVSVSS | low polyreactivity
6 | QVQLEESGGGLVQAGGSLRFSFAASGSIFRYYAMGWYRQAPGKERELVANISRGCSTYYADSVKGRFTISRDNAKKTVYLQMNSLKPDDTAVYYCAADISERYDYWGQGTQVTVSS | high polyreactivity
7 | QVQLEESGGGLVQAGGSLRISCAASVRILSWYAIGWYRQAPGKERELVAAISVRGSTYYADSVKGRFTISRDNAKNTVYLQMNSLKPDDTAVYYSNRVWLQASTTIVVSSRRLYYWGLGTQVTVSS | high polyreactivity
8 | QVQLEESGGGLVQAGGSLRLSCAASGFIFDYYAMGWYRQAPGKERELVAAISSSGGSTYADSVKGRFTISRDNAKNTVYLQMNSLKPEDTAVYYCAADWYKRPPYDYWGQGTQVTVSS | low polyreactivity
9 | QVQLEESGGGLVQAGGSLRLSCAASGFIFGLNAMGWYRQAPGKERELVAGIRSGSSTNYADSVKGRFTISRDNAKNTVYLQMNSLKPEDTAVYYCATEGYWVYGFDDEYWGQGTQVTVSS | low polyreactivity
10 | QVQLEESGGGLVQAGGSLRLSCAASGFIFGRNAMGWYRQAPGKERELVAAITRSGGSTYYADSVKGRFTISRDNAKNTVYLQMNSLKPEDTAVYYCAKGVFTWGVFRVGIRDDYWGQGTQVTVSS | high polyreactivity
11 | QVQLEESGGGLVQAGGSLRLSCAASGFTFNKYAMGWYRQAPGKERELVDAISSSGGSTRYADSVKGRFKISRDNAKNTVYLQMNSLKPEDSAVYYCAVYVTRDSGWWLYDYWGQGTQVTVAS | high polyreactivity
12 | QVQLEESGGGLVQAGGSLRLSCAASGFTFRYYAMGWYRQAPGKERELVASISSSGGSTNYADSVKGRFTISRDNAKNTVYLQMNSLKPEDTAVYYCAVPPYTWLYDYWGQGTQVTVSS | high polyreactivity
13 | QVQLEESGGGLVQAGGSLRLSCAASGFTFSYYAMGWYRQATGKERELVAAITSSAGSTYYADSVKGRFTISRDYAKNSFYLQMTSLKPEDTEVYYCYAVYSKLNGGYDYWGQGTQVTVSS | low polyreactivity
14 | QVQLEESGGGLVQAGGSLRLSCAASGFTFVYYAMGRYRQATGKERELVAAISWRDGDTYYADSVKGRFTISRDNAKNTVYVQMNSLKPEDTAVYYCAADYSYFKDDDWGQGTQVTVSS | low polyreactivity
15 | QVQLEESGGGLVQAGGSLRLSCAASGFTFWLYAMGWYRQAPGKEREFVAAISTSGGSTYADSVKGRFTISRDNAKNTVYLQMNSLKPEDTAVYYCNAGYLLYYDYHLFYWGQGTQVTVSS | low polyreactivity
16 | QVQLEESGGGLVQAGGSLRLSCAASGFTFYIYALGWYRQAPGKERELVAAISSSGTRTYYADSVKGRFTISRDNAKNTVYLQMNSLKPEDTAVYYCAATRYSWHNRVSRRHRYDYWGQGTQVTVSS | high polyreactivity
17 | QVQLEESGGGLVQAGGSLRLSCAASGFTIRLYARGWYRQAPGKVRELVAAITSGGSTYADSVKGRFTISRDNAKNTVYLQMNSLKPEDTAVNYCAAVSRYWAKYEYWGQGTQVTVSS | high polyreactivity
18 | QVQLEESGGGLVQAGGSLRLSCAASGFTSYYAMGWYRQAPGKERELVAAIRYSTVSTYYADAVKGRFTISRDNAKNTVYLQMNIMKPEDTAVYYCAAQRRPYLPGHYYYWGQGTQVTVSS | high polyreactivity
19 | QVQLEESGGGLVQAGGSLRLSCAASGGILVFYALGWYRQAPGTERELVAAINVSGRSTYYADSVKGRFTISRDNAKNTVYVQMNSLKPEDTAVYYCAADYYYVWYDYWGQGTQVTVSS | low polyreactivity
20 | QVQLEESGGGLVQAGGSLRLSCAASGIIFKLYAMGWYRQAPGKERELVAAITYRGGTTYYADSVKGRFTISRDNAKNTDYLQMNSLKPEDTAVYYCAVAVTSYSSKKLYYWGQGTQVTVSS | low polyreactivity
21 | QVQLEESGGGLVQAGGSLRLSCAASGINLTGYTMGWYRKATGKERQLVAAITYGGTSTYYADSVKGRFTISRDNAKNTVYLQMNSLKPEDTAVYYCAALYRGPRYGYWGQGTQVTVSS | high polyreactivity

Row | Sequence | polyreactivity (PSR sort gate)
22 | QVQLEESGGGLVQAGGSLRLSCAASGISFDTYAMGRNRPAPGKERELVAAMSSSGSTNYADSVKGRFTISRDNAKKTVYLQMNSLKPEDTADYYCATDYWPGTGGTYDYWGQGTQVTVSS | low polyreactivity
23 | QVQLEESGGGLVQAGGSLRLSCAASGITFEYYAMVWYRQAPGKERELVAANDTGGSTNYADSVKGRFTISRDNAKNTVYFLMNSLKPEDTEVYYCAADWSWWDGEDYHFEYDYWGQGTQVTVSS | low polyreactivity
24 | QVQLEESGGGLVQAGGSLRLSCAASGITFLNYAMGWYRQAPGKERELVAAISWSGGRTYYADSVKGRFTISRDNAKNTVYLQMNSLKPEDTAVYYCAVRGSWYSEHNYWGQGTQVTVSS | high polyreactivity
25 | QVQLEESGGGLVQAGGSLRLSCAASGITFYYYAMGWYRRAPGKERELVAANSSGGSKSYADSVKGRFTISRDNAKNNVYLQMNSLKPDDSAVYYCAADLPYLWYPFYYWGQGTQVTVSS | high polyreactivity
26 | QVQLEESGGGLVQAGGSLRLSCAASGLIFIQYAMVWNRQAPGKERELVAAISGSGVTTYYADSVNGSFTISRDKAMNTVYLQMTSLKPEDTAVYYCNAALRWKYDWGQGTQVTVSS | low polyreactivity
27 | QVQLEESGGGLVQAGGSLRLSCAASGLIFVHYTMGWYRQAPGKERELVAAISRSGGSTSYADSVKGRFTISRDTAKNSVYLQMNSLKPEDTAVYYCAAVGSRSGLTPYEYWGQGTQVTVSS | high polyreactivity
28 | QVQLEESGGGLVQAGGSLRLSCAASGLILRWNAMGWYRQAPGKERELVATINRGGSTNYADSVKGRFTISRDNAKNTVYLQMNSLKPEDTAVYYCYKARTSQYHHTYWRTYGYWGPGTQVTVSS | low polyreactivity
29 | QVQLEESGGGLVQAGGSLRLSCAASGLTFTPNAMGWYRPAPGKEWELVAAITNGGSTNYADSVKGCFTISRDNAKNTVYLQMNSLKPEDTAVYYCAAECSYWFRRYGYWGQGTQVTVSS | high polyreactivity
30 | QVQLEESGGGLVQAGGSLRLSCAASGLTFYSYAMGWYRQAPGKERELVAGINYSGDSTHYADSVKGRFTISRDNAKNTVYLQMNSLKPEDTAVYYCASQTFVYRKELLSRYEYWGQGTQVTVSS | high polyreactivity
31 | QVQLEESGGGLVQAGGSLRLSCAASGNIFRDYAMGWYRQAPGKERELVAAISWSGGSTYYADSVKGRFTISRDNAKNTVYLQMNSLKPEDTAVYYCAARKPYSYNYWGQGTQVTVSS | high polyreactivity
32 | QVQLEESGGGLVQAGGSLRLSCAASGRIFATNAMGWYRQAPGKERELVATITRSAGRTYYADSVKGRFTISRDNAKNTVYLHMNSLKPEDTAVYYCASSYWDTEPVYREYDYWGQGTQVTVSS | low polyreactivity
33 | QVQLEESGGGLVQAGGSLRLSCAASGRIFAYYAMGWYRQAPGKERELVAAIRGSGGSTYYADSVKGRFTISRDNAKNTVYLQMNSLKPEDTAVYYCAARTQPKKFYYWGQGTQVTVSS | high polyreactivity
34 | QVQLEESGGGLVQAGGSLRLSCAASGRIFFKYSMGWYRQAPGKERELVATISSSTGSTYYADSVKGRFTISRDNAKNTDYLQMNSLKPEDTAVYYCNARVRTQQRWVDYWGQGTQVTVSS | high polyreactivity
35 | QVQLEESGGGLVQAGGSLRLSCAASGRIFIAYTMGWYRQAPGKERELVAAITWNGGSTYYADSVKGRFTISRDNAMNTVYLQMNSLKPEDTAVYYWVLVSRPGPKPAREMDYWGQGTQVTVSS | low polyreactivity
36 | QVQLEESGGGLVQAGGSLRLSCAASGRIFLWYAMGWYRQAPGKERELVAAISSNGGSTRYADSVKGRFTISRDNAKNTVYLQMNSLKPEDTALYYCNADVHWNRYPYGGNGYGYWGQGTQVTVSS | low polyreactivity
37 | QVQLEESGGGLVQAGGSLRLSCAASGRIFLYKIMGSYREAPGQERDLVAAISWGTGSTYADSVKGRFTISRDNAINTVYLQIYRLKPEDTAVYYCDADSFMPPYYHWGQGTQVTVSS | low polyreactivity
38 | QVQLEESGGGLVQAGGSLRLSCAASGRIFRYYTMGGYRQAPGKERELVDAISGSGGSTYYADSVKGRFTISRDNAKNTVYLQMNSLKPEDTSVYYCAAAHRYWGQGTQVTVSS | high polyreactivity
39 | QVQLEESGGGLVQAGGSLRLSCAASGRIFSGYAMGWYRQAPGIERELVAAIDSVGDTYYADSVKVRFTISRDNAKNTVYLQMNSLKPEDTAVYYCAAERTVRMVLSPTDEMDYWGQGTQVNVSS | low polyreactivity
40 | QVQLEESGGGLVQAGGSLRLSCAASGRIFTWYTMGWYRQAPGKEREFVAAITRSGTSTYYADSVKGRFTISRDNAKNTVYLQMNSLKPEDTAVYYCAAGKPRSKYWYDYWGQGTQVTVSS | high polyreactivity
41 | QVQLEESGGGLVQAGGSLRLSCAASGRIFWYYDMGWYRQAPGKERELVAAISQRGGSTYYADSVKGRFTISRDNAKNTVYLQMNSLKAEDTAVYYCAKRNPYWATREYWGQGTQVTVSS | high polyreactivity
